System: keratin 1
Assay: keratin 1 expression by Western blot in keratinocytes
Assay type: cell-based, mice
Details: visfatin 0.0001 μg/ml or L-alpha 100 ng/ml, 24 hours after calcium-induced differentiation
From the text: Medium A and B are both EMEM eagle's minimal essential medium from Biological Industries (Israel) containing 8% CHELEX™ treated fetal bovine serum. CHELEX™ is a strong chelator which binds free Ca^2+ and Mg^2+ ions to prevent these ions from being bioavailable to the cultured cells.
Primary skin keratinocytes isolated from the tails of adult mice (7-10 months up to 2 years) were maintained in medium A (MEM) as described above. After 5 days in (medium A), the growth medium in half of the cultured plates was replaced with medium B (as described above)
Next visfatin or L-alpha were each individually added to cells cultured in medium A (FIG. 19A) and cells cultured in medium B (FIG. 19B) as indicated in FIG. 19. The final concentration in the culture medium of visfatin was 0.0001 μg/ml visfatin. The final concentration in the culture medium of L-alpha was 100 ng/ml.
Cell differentiation was induced by elevating calcium from 0.05 mM to 0.12 mM as described above. Twenty-four (24) hours after differentiation cells were harvested and Western Blot analysis was performed. […] Keratin 1 expression was then quantified using standard densitometric methods […]
Cell differentiation was then induced by elevating calcium levels in the culture medium from 0.05 mM to 0.12 mM. […] Expression was assessed using standard Western blotting and densitometry techniques.

B1: visfatin: murine visfatin (ALEXIS), adipocytokine that functions as an insulin analog (protein, UniProt Q99KQ4 1-491, looked up)
Nicotinamide …: MNAAAEAEFNILLATDSYKVTHYKQYPPNTSKVYSYFECREKKTENSKVRKVKYEETVFYGLQYILNKYLKGKVVTKEKIQEAKEVYREHFQDDVFNERGWNYILEKYDGHLPIEVKAVPEGSVIPRGNVLFTVENTDPECYWLTNWIETILVQSWYPITVATNSREQKKILAKYLLETSGNLDGLEYKLHDFGYRGVSSQETAGIGASAHLVNFKGTDTVAGIALIKKYYGTKDPVPGYSVPAAEHSTITAWGKDHEKDAFEHIVTQFSSVPVSVVSDSYDIYNACEKIWGEDLRHLIVSRSTEAPLIIRPDSGNPLDTVLKVLDILGKKFPVTENSKGYKLLPPYLRVIQGDGVDINTLQEIVEGMKQKKWSIENVSFGSGGALLQKLTRDLLNCSFKCSYVVTNGLGVNVFKDPVADPNKRSKKGRLSLHRTPAGNFVTLEEGKGDLEEYGHDLLHTVFKNGKVTKSYSFDEVRKNAQLNIEQDVAPH
**Q.** For B1, which “expression of keratin 1” value (medium A (no KCl)) is on record?
**A.** The value was “decreased relative to the control sample”.

**Q.** And the “expression of keratin 1” value (medium B (KCl 0.4 mg/ml))?
**A.** The value was “not significantly altered”.
